Measured values reported in patent US20210395344A1.
Substitutions are numbered along the chain they refer to.

B1: SARS-CoV-2 variant 1-31 (antibody, V domains shown)
VH: EVQLLESGGGLVQPGGSLRLSCAASGFTFSSYAMNWVRQAPGKGLEWVSAISGSGGSTFYADSVKGRFTISRDNSKNTLYLQMNSLRAEDTAVYYCTRPPYGDYGDYWGQGTLVTVSS
VL: QSALTQPASVSGSPGQSITISCTGTSSDVGKYNLVSWYQQHPGKAPKLMIYEGSQRPSGVSNRFSGSKSGNTASLTISGLQAEDEADYYCCSYAGSRTPVVFGGGTKLTVL
B2: SARS-CoV-2 variant 1-3 (antibody, V domains shown)
VH: EVQLLESGGGLVQPGGSLRLSCAASGFTFSSQAMSWVRQAPGKGLEWVSAISGSGGGTYYADSVKGRFTISRDNSKNTLYLQMNSLRAEDTAVYYCAKDRRFGEFDPWGQGTLVTVSS
VL: B1 VL with T25I, K31S, S54T, Q55K, R97S, T98S, P99F
B3: SARS-CoV-2 variant 1-32 (antibody, V domains shown)
VH: B1 VH with N35Y
VL: QSALTQPASVSGSPGQSITISCTGTSSDVGGYNLVSWYQQHPGKAPKLMIYEGNKRPSGVSNRFSGSKSGNTASLTISGLQAEDEADYYCCSYAGSSTFPVVFGGGTKLTVL
B4: SARS-CoV-2 variant 1-4 (antibody, V domains shown)
VH: B2 VH
VL: B1 VL with K31T, R97S, T98S, P99F
B5: SARS-CoV-2 variant 1-5 (antibody, V domains shown)
VH: B2 VH
VL: B1 VL with D28G, K31S, G53A, Q55K, R97Y, P99F, V100A
B6: SARS-CoV-2 variant 1-28 (antibody, V domains shown)
VH: EVQLLESGGGLVQPGGSLRLSCAASGFTFSSYGMSWVRQAPGKGLEWVSAISGSGGGTYYADSVKGRFTISRDNSKNTLYLQMNSLRAEDTAVYYCASSSSWQFDYWGQGTLVTVSS
VL: B1 VL with D28G, K31S, R97S, P99H, V100Y
B7: SARS-CoV-2 variant 1-30 (antibody, V domains shown)
VH: B1 VH with N35T
VL: B1 VL with S27R, K31S, S54T, Q55K

Each binder was assayed against COVID S1 RBD Fc fusion (Antigen 1) (SARS-CoV-2), P0DTC2 (assay: phage ELISA). Conditions: remark: other sources report otherwise.

Binder | specificity ELISA, fold over background (fold over background) | specificity ELISA, percent binding relative to Acro S1 [%]
B1 | 1.3 | 4.3
B2 | 1.8 | 109
B3 | 1.5 | 13.1
B4 | 1.4 | 138
B5 | 1.6 | 108
B6 | 1.1 | 113
B7 | 1.7 | 9.8
